Measurements: patent publication US20210388087A1 (Chugai, published 2021)
Numbering of substitutions follows the chain as printed. One block for each binder: values may come before it.

Biological target: T1, Human CD137 ECD (human)
T1 construct: entry includes C-terminal His-tag and biotin acceptor peptide; also called human CD137 extracellular domain; 4-1BB
Assay: Biacore SPR, vs parent H183/L072

T1 sequence (chain, as listed by the source limits assumed): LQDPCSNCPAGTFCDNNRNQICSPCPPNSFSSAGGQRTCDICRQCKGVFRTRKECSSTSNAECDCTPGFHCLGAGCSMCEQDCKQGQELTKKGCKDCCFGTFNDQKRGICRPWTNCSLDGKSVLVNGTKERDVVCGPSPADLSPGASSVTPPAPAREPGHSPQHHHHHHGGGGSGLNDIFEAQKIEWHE

- fold change of affinity: 0.6 fold
B2: H183/L072 VL N30Y (antibody, name in Kabat numbering, V domains shown)
VH: QVQLVESGGGLVQPGRSLRLSCAASGFTFSNAWMHWVRQAPGKGLEWVAQIKDKGNAYAAYYAPSVKGRFTISRDDSKNSIYLQMNSLKTEDTAVYYCHYVHYASASTVLPAFGVDAWGQGTTVTVSS
VL: DIVMTQSPLSLPVTPGEPASISCQASQELVHMNRYTYLHWYQQKPGQAPRLLIYKVSNRFPGVPDRFSGSGSGTDFTLKISRVEAEDVGVYYCAQGTSVPFTFGQGTKLEIK
notes: Dual-Ig

- fold change of affinity: 0.4 fold
B3: H183/L072 VL N53Q (antibody, name in Kabat numbering, V domains shown)
VH: B2 VH
VL: B2 VL with Y35N, N58Q
notes: Dual-Ig

- fold change of affinity: 0 fold
B4: H183/L072 VL N53W (antibody, name in Kabat numbering, V domains shown)
VH: B2 VH
VL: B2 VL with Y35N, N58W
notes: Dual-Ig

- fold change of affinity: 0.4 fold
B5: H183/L072 VL N30P (antibody, name in Kabat numbering, V domains shown)
VH: B2 VH
VL: B2 VL with Y35P
notes: Dual-Ig

- fold change of affinity: 0 fold
B6: H183/L072 VL N53T (antibody, name in Kabat numbering, V domains shown)
VH: B2 VH
VL: B2 VL with Y35N, N58T
notes: Dual-Ig

- fold change of affinity: 0.7 fold
B11: H183/L072 VL N53A (antibody, name in Kabat numbering, V domains shown)
VH: B2 VH
VL: B2 VL with Y35N, N58A
notes: Dual-Ig

- fold change of affinity: 0.6 fold
B12: H183/L072 VL N53G (antibody, name in Kabat numbering, V domains shown)
VH: B2 VH
VL: B2 VL with Y35N, N58G
notes: Dual-Ig

- fold change of affinity: 0.2 fold
B14: H183/L072 VL N53L (antibody, name in Kabat numbering, V domains shown)
VH: B2 VH
VL: B2 VL with Y35N, N58L
notes: Dual-Ig

- fold change of affinity: 0.5 fold
B15: H183/L072 VL N53H (antibody, name in Kabat numbering, V domains shown)
VH: B2 VH
VL: B2 VL with Y35N, N58H
notes: Dual-Ig

- fold change of affinity: 0.3 fold
B17: H183/L072 VL N53F (antibody, name in Kabat numbering, V domains shown)
VH: B2 VH
VL: B2 VL with Y35N, N58F
notes: Dual-Ig

- fold change of affinity: 0.2 fold
B19: H183/L072 VL P56D (antibody, name in Kabat numbering, V domains shown)
VH: B2 VH
VL: B2 VL with Y35N, P61D
notes: Dual-Ig

- fold change of affinity: 0.3 fold
B20: H183/L072 VL N53D (antibody, name in Kabat numbering, V domains shown)
VH: B2 VH
VL: B2 VL with Y35N, N58D
notes: Dual-Ig

- fold change of affinity: 1 fold
B21: H183/L072 VL N30Q (antibody, name in Kabat numbering, V domains shown)
VH: B2 VH
VL: B2 VL with Y35Q
notes: Dual-Ig

- fold change of affinity: 0.2 fold
B22: H183/L072 VL N53K (antibody, name in Kabat numbering, V domains shown)
VH: B2 VH
VL: B2 VL with Y35N, N58K
notes: Dual-Ig

- fold change of affinity: 0 fold
B23: H183/L072 VL N53P (antibody, name in Kabat numbering, V domains shown)
VH: B2 VH
VL: B2 VL with Y35N, N58P
notes: Dual-Ig

- fold change of affinity: 0.5 fold
B24: H183/L072 VL N30R (antibody, name in Kabat numbering, V domains shown)
VH: B2 VH
VL: B2 VL with Y35R
notes: Dual-Ig

- fold change of affinity: 0.7 fold
B27: H183/L072 VL N30V (antibody, name in Kabat numbering, V domains shown)
VH: B2 VH
VL: B2 VL with Y35V
notes: Dual-Ig

- fold change of affinity: 0.1 fold
B29: H183/L072 VL N53M (antibody, name in Kabat numbering, V domains shown)
VH: B2 VH
VL: B2 VL with Y35N, N58M
notes: Dual-Ig

- fold change of affinity: 0.2 fold
B30: H183/L072 VL N30S (antibody, name in Kabat numbering, V domains shown)
VH: B2 VH
VL: B2 VL with Y35S
notes: Dual-Ig

- fold change of affinity: 0.2 fold
B32: H183/L072 VL N53E (antibody, name in Kabat numbering, V domains shown)
VH: B2 VH
VL: B2 VL with Y35N, N58E
notes: Dual-Ig

- fold change of affinity: 0.9 fold
B33: H183/L072 VL N30W (antibody, name in Kabat numbering, V domains shown)
VH: B2 VH
VL: B2 VL with Y35W
notes: Dual-Ig

- fold change of affinity: 0.3 fold
B35: H183/L072 VL N53R (antibody, name in Kabat numbering, V domains shown)
VH: B2 VH
VL: B2 VL with Y35N, N58R
notes: Dual-Ig

- fold change of affinity: 0.5 fold
B38: H183/L072 VL N53S (antibody, name in Kabat numbering, V domains shown)
VH: B2 VH
VL: B2 VL with Y35N, N58S
notes: Dual-Ig

- fold change of affinity: 0.2 fold
B41: H183/L072 VL N53I (antibody, name in Kabat numbering, V domains shown)
VH: B2 VH
VL: B2 VL with Y35N, N58I
notes: Dual-Ig

- fold change of affinity: 0.1 fold
B43: H183/L072 VL P56A (antibody, name in Kabat numbering, V domains shown)
VH: B2 VH
VL: B2 VL with Y35N, P61A
notes: Dual-Ig

- fold change of affinity: 0.5 fold
B44: H183/L072 VL N53V (antibody, name in Kabat numbering, V domains shown)
VH: B2 VH
VL: B2 VL with Y35N, N58V
notes: Dual-Ig

- fold change of affinity: 0.3 fold
B46: H183/L072 VL N30T (antibody, name in Kabat numbering, V domains shown)
VH: B2 VH
VL: B2 VL with Y35T
notes: Dual-Ig

Continued, binder first:

B1: H183/L072 VL N28M (antibody, name in Kabat numbering, V domains shown)
VH: B2 VH
VL: B2 VL with N33M, Y35N
notes: Dual-Ig
- fold change of affinity: 0.4 fold

B7: H183/L072 VL N28Y (antibody, name in Kabat numbering, V domains shown)
VH: B2 VH
VL: B2 VL with N33Y, Y35N
notes: Dual-Ig
- fold change of affinity: 0.4 fold

B8: H183/L072 VL N30I (antibody, name in Kabat numbering, V domains shown)
VH: B2 VH
VL: B2 VL with Y35I
notes: Dual-Ig
- fold change of affinity: 0.3 fold

B9: H183/L072 VL N30M (antibody, name in Kabat numbering, V domains shown)
VH: B2 VH
VL: B2 VL with Y35M
notes: Dual-Ig
- fold change of affinity: 1.8 fold

B10: H183/L072 VL N28Q (antibody, name in Kabat numbering, V domains shown)
VH: B2 VH
VL: B2 VL with N33Q, Y35N
notes: Dual-Ig
- fold change of affinity: 0.4 fold

B13: H183/L072 VL N30G (antibody, name in Kabat numbering, V domains shown)
VH: B2 VH
VL: B2 VL with Y35G
notes: Dual-Ig
- fold change of affinity: 0.9 fold

B16: H183/L072 VL N30A (antibody, name in Kabat numbering, V domains shown)
VH: B2 VH
VL: B2 VL with Y35A
notes: Dual-Ig
- fold change of affinity: 0.7 fold

B18: H183/L072 VL N28R (antibody, name in Kabat numbering, V domains shown)
VH: B2 VH
VL: B2 VL with N33R, Y35N
notes: Dual-Ig
- fold change of affinity: 0.4 fold

B25: H183/L072 VL N30H (antibody, name in Kabat numbering, V domains shown)
VH: B2 VH
VL: B2 VL with Y35H
notes: Dual-Ig
- fold change of affinity: 1 fold

B26: H183/L072 VL N28P (antibody, name in Kabat numbering, V domains shown)
VH: B2 VH
VL: B2 VL with N33P, Y35N
notes: Dual-Ig
- fold change of affinity: 0.4 fold

B28: H183/L072 VL N28S (antibody, name in Kabat numbering, V domains shown)
VH: B2 VH
VL: B2 VL with N33S, Y35N
notes: Dual-Ig
- fold change of affinity: 0.5 fold

B31: H183/L072 VL N30K (antibody, name in Kabat numbering, V domains shown)
VH: B2 VH
VL: B2 VL with Y35K
notes: Dual-Ig
- fold change of affinity: 0.6 fold

B34: H183/L072 VL N30L (antibody, name in Kabat numbering, V domains shown)
VH: B2 VH
VL: B2 VL with Y35L
notes: Dual-Ig
- fold change of affinity: 0.3 fold

B36: H183/L072 VL N28V (antibody, name in Kabat numbering, V domains shown)
VH: B2 VH
VL: B2 VL with N33V, Y35N
notes: Dual-Ig
- fold change of affinity: 0.3 fold

B37: H183/L072 VL N28W (antibody, name in Kabat numbering, V domains shown)
VH: B2 VH
VL: B2 VL with N33W, Y35N
notes: Dual-Ig
- fold change of affinity: 0.3 fold

B39: H183/L072 VL N30D (antibody, name in Kabat numbering, V domains shown)
VH: B2 VH
VL: B2 VL with Y35D
notes: Dual-Ig
- fold change of affinity: 0.1 fold

B40: H183/L072 VL N28T (antibody, name in Kabat numbering, V domains shown)
VH: B2 VH
VL: B2 VL with N33T, Y35N
notes: Dual-Ig
- fold change of affinity: 0.5 fold

B42: H183/L072 VL N30E (antibody, name in Kabat numbering, V domains shown)
VH: B2 VH
VL: B2 VL with Y35E
notes: Dual-Ig
- fold change of affinity: 0.1 fold

B45: H183/L072 VL N30F (antibody, name in Kabat numbering, V domains shown)
VH: B2 VH
VL: B2 VL with Y35F
notes: Dual-Ig
- fold change of affinity: 0.9 fold
